Experimental data taken from a protein production outcome set (Wang et al. 2014).

Assay: label from the status in PepcDB records

| Sequence | protein production |
| --- | --- |
| MNKRSIFSNWFITARPKTLPLALASIMVGSALANWVGQFDWVTNLLAIITTMLLQILSNFANDYGDYVKGSDTQERIGPLRAIQQGNITGEQLRQAVIFLSFLSFISGLVLTIYAYQSLQDLLVFVSLGVVSIIAAISYTVGKKAYGYLGLGDLFVLIFFGFVAVIGSFYLQAHSIPIIILLPAFACGLLSVAVLNINNLRDINQDRQAGKNTLIVRIGSDNGRIYHMLLLTLAVICYLIFAIIEGNHWYNYLFLLAVPLLVQHALFVYRYQEPIELRPMLGKMAALALLTNLLFSIGIMLG | failed |
| MEHSSGTKLLLTLSLFFCLISGAEAADSHALDSGDVNLSELKAFDLLCKCETWGIVNTVSLSSTGNYLVAGGFDRNVSLFDSRGTQLWNYKTEDIVYTVSISSDGSRIVAGSNDKKVYFFNREGDLLWSHKTGGNINSVAVSSNGLYVAAGGEDGKVYFMNSAGKLLWSFDSEAAVRSIAISRDGTYVAVGNANNYVYLFDSEGKTIWNRKTGSLINCVSMTPYAYYVAAGGSNYNVYLFDRKGEFSWMNNPGYWVSSVSLTTNGAYLAAGSFDDMIYLFNRTGGKIWDYKAKDDVYAVEISADSSFIAAGSWDDTLYVLNMDGEELWNYNCGGNINSLDVSRDSTTIAVGSDAGAVYLFERNPTAFALLLGDESFLPEETTKETDTSLAEKTIKPIEEETAVTGGVENKVEDAPATSSSVSGNPKTGENPGSEELPTEESSLKLLEKFDSIKFPAALLLGALAGTVFFLKRRLVKYHEKNDENLEDLEEKDIRE | failed |
| MAEKSQIPDNNNNTSSSAKKPTPEIGSGSGKRYYNPPESVNPDQATLREQWKFAIRQYSKWYSHAWGTAILAGGFFFGLGWIIKGSNPLPSLQSSSKPRDEEK | failed |
| MINIVIPMAGAGSRFAQAGYKKPKPFIDVLGRPMICHVLDNLNMPDARFILLTRKEHFENEQETVNWIKSKYNVEFVLIDNLTEGAACTVLHAHKLIDNNTPLLIANSDQIVDMNIAEFINDSENRNLDGSVLCFKDHDTKWSYAKIDGEGLITEIREKVVISEFATVGIYYFAKGGFFVKNAIDMIIRNERVKNEFYVAPVYNFGIQEGLKFGIFNININQMHGIGTPTDLNVYIDLVQRNKLEHHHHHH | not failed |
| MSSWRKPGPIPRDLSVEIDSSTERRIIAKLLPGVMGPGFRQDDAGEAAMSDPSAHWNNVYATKGETEVSWFQESPAISLDMIRSANVDRGAGIIDIGGGASRLVDALLQDGYRNLAVLDLSANALDAAKRRIGPAAASVDWIVADATTWRPARSYEVWHDRAAFHFLTDPRDRAAYVERLRSAVAAGGHVIIATFALDGPEKCSGLPVQRHDSKSLSTELGPDFELIETRSETHHTPWKSTQAFQFSRFRRRGS | failed |
| ASPVENKEVYQCRLCNAKLSSLLEQGSHERLCRNAAVCPYCSLRFFSPELKQEHESKCEYKKLTCLECMRTFKSSFSIWRHQVEVHNQNNMAPT | not failed |
| MRYVVGHKNPDTDSIASAIVLAYFLDCYPARLGDINPETEFVLRKFGVMEPELIESAKGKEIILVDHSEKSQSFDDLEEGKLIAIIDHHKVGLTTTEPILYYAKPVGSTATVIAELYFKDAIDLIGGKKKELKPDLAGLLLSAIISDTVLFKSPTTTDLDKEMAKKLAEIAGISNIEEFGMEILKAKSVVGKLKPEEIINMDFKNFDFNGKKVGIGQVEVIDVSEVESKKEDIYKLLEEKLKNEGYDLIVFLITDIMKEGSEALVVGNKEMFEKAFNVKVEGNSVFLEGVMSRKKQVVPPLERAYNG | not failed |
| TKDFNLNVSATYNFNKNNIDELDGGKDIYYNSGWGSSAQHPSYDYVLSEGKPVGVIRGFKSAGFYTVDDFDYVDGVYKLKAGIPDISTAATGTYRRPSELQVADGQIAFPGALKLQDVDKSGIVDLDDVVDLGEVQAKHTGGFSLNGNYKNIDFGANFTYQIGGKVYNVATMSQLSGGKETGLGLNKYKDLAGAFQLYDIQNGNLVPVIEPTALKQLNANAKYALPYYEDAPILSDYVEDASYLRLNTLTVGYTLPKAWTTKAYMQKVRIYVTGGNLFCITGYSGLDPEVNSDPDKAKSYPTLGLDWGAYMRARTFTVGLNVEF | failed |
| MNSESKLSQKANSSFTMDDFAKALENHDYQFQKGQVVYGKVFQLDPDGAYVDIGGKSSAYIPRDEASLRAVNDLAAVLPLHEELEFIIIREQDAEGQVTLSRRQLEINHIWEKLAQMKENSQPVDVKVTGVNKGGVTVDVQSLRGFIPRSHLTERDNLEALKGHTLTAGFLEVDRNNKKLVLSQRLVTRSSNFNQLEIGQLVEGKITGIKPFGVFVDLNGLSALLHIKQVSQKFIESLEKVFQPGQTIKAIVIDLDQGKGRVAISTRALENFPGEVLENFEEVMASAEARANRAANKMNEGGVGV | failed |
